Reference: publication PMC2926618
Where a chain is given by its changes, count along the chain named.

Legend:
[1] = target: T1, GST-ZBTB4 S323A (Homo sapiens, UniProt Q9P1Z0 268-460, S323A); experiment: EMSA
T1 sequence: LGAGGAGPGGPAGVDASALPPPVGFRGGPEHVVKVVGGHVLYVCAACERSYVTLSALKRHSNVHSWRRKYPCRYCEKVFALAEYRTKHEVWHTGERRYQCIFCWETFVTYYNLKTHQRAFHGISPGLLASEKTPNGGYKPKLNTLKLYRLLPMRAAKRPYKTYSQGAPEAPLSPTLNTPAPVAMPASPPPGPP

[2] = target: T2, GST-ZBTB4 L348A (Homo sapiens, UniProt Q9P1Z0 268-460, L348A); experiment: EMSA
T2 sequence: T1 sequence with A56S, L81A

[3] = target: T3, GST-Kaiso E535A (Homo sapiens, UniProt Q86T24 454-638, E535A); experiment: EMSA
T3 sequence: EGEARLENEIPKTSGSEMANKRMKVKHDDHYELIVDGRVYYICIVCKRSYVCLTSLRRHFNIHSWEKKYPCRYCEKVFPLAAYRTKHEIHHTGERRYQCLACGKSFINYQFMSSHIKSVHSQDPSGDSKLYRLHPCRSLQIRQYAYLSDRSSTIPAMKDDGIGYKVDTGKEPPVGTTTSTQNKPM

[4] = target: T4, GST-ZBTB38 zinc fingers (Homo sapiens, UniProt Q8NAP3 418-612); experiment: EMSA
T4 sequence: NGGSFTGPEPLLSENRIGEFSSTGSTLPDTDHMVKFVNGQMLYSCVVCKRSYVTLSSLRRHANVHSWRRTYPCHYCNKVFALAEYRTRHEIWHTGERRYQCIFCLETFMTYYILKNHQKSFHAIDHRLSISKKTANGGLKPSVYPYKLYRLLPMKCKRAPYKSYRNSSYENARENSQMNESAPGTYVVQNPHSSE

[5] = target: T5, GST-ZBTB4 R326A (Homo sapiens, UniProt Q9P1Z0 268-460, R326A); experiment: EMSA
T5 sequence: T1 sequence with A56S, R59A

[6] = target: T6, GST-ZBTB4 Y351A (Homo sapiens, UniProt Q9P1Z0 268-460, Y351A); experiment: EMSA
T6 sequence: T1 sequence with A56S, Y84A

[7] = target: T7, GST-ZBTB4 K354A (Homo sapiens, UniProt Q9P1Z0 268-460, K354A); experiment: EMSA
T7 sequence: T1 sequence with A56S, K87A

[8] = target: T8, GST-ZBTB4 T376A (Homo sapiens, UniProt Q9P1Z0 268-460, T376A); experiment: EMSA
T8 sequence: T1 sequence with A56S, T109A

[9] = target: T9, GST-ZBTB4 zinc fingers (Homo sapiens, UniProt Q9P1Z0 268-460); experiment: competition
T9 sequence: T1 sequence with A56S

[10] = target: T9, GST-ZBTB4 zinc fingers; experiment: EMSA
[11] = target: T10, GST-ZBTB4 E350A (Homo sapiens, UniProt Q9P1Z0 268-460, E350A); experiment: EMSA
T10 sequence: T1 sequence with A56S, E83A

[12] = target: T9, GST-ZBTB4 zinc fingers; experiment: EMSA; remark: listed apart in the source
[13] = target: T11, GST-Kaiso zinc fingers (Homo sapiens, UniProt Q86T24 454-638); experiment: EMSA
T11 sequence: T3 sequence with A82E

[14] = target: T9, GST-ZBTB4 zinc fingers; experiment: competition; remark: listed apart in the source

B1: meZ4BS (CMGCCAT) (dsDNA)
DNA 1: GTAGAAGTTCCCGCCATCACTATTG
DNA 2: CAATAGTGATGGCGGGAACTTCTAC
modifications: 5mC at strand 1 C12 and strand 2 C13
binding result [1]: binds | binding result [2]: binds | binding result [3]: no binding | binding result [4]: binds | binding result [5]: no binding | binding result [6]: binds | binding result [7]: binds | binding result [8]: binds | binding result [9]: binds

B2: Z4BS (ZBS, CTGCCATC; = TG/AC) (dsDNA)
DNA 1: GTAGAAGTTCCTGCCATCACTATTG
DNA 2: CAATAGTGATGGCAGGAACTTCTAC
binding result [10]: binds | binding result [3]: binds | binding result [11]: binds | binding result [5]: no binding | binding result [7]: binds | binding result [8]: binds

B3: S2 (CTGCCATC) (dsDNA)
DNA 1: ACCCACCTGCCATCTAGGT
DNA 2: ACCTAGATGGCAGGTGGGT
binding result [12]: binds | binding result [13]: binds | binding result [4]: no binding

B4: S15 (CCGCCATC) (dsDNA)
DNA 1: ACCCAACCGCCATCTGGGT
DNA 2: ACCCAGATGGCGGTTGGGT
binding result [12]: binds | binding result [13]: binds | binding result [4]: no binding

B5: meZ4BS hemimethylated, upper strand (dsDNA)
DNA 1: GTAGAAGTTCCCGCCATCACTATTG
DNA 2: CAATAGTGATGGCGGGAACTTCTAC
modifications: 5mC at strand 1 C12 only
binding result [14]: binds

B6: TG/GC mismatch (dsDNA)
DNA 1: GTAGAAGTTCCTGCCATCACTATTG
DNA 2: CAATAGTGATGGCGGGAACTTCTAC
binding result [11]: binds

B7: MS8 methylated (CCGCTAT) (dsDNA)
DNA 1: ACCCAAACCGCTATCCTT
DNA 2: AAGGATAGCGGTTTGGGT
modifications: 5mC at CpG, both strands (SssI)
binding result [12]: binds

B8: MS20 unmethylated (ACGCTTG) (dsDNA)
DNA 1: AAGGCCAACGCTTGTGGT
DNA 2: ACCACAAGCGTTGGCCTT
binding result [12]: no binding

B9: MS20 methylated (ACGCTTG) (dsDNA)
DNA 1: AAGGCCAACGCTTGTGGT
DNA 2: ACCACAAGCGTTGGCCTT
modifications: 5mC at CpG, both strands (SssI)
binding result [12]: binds

B10: Non-selected (dsDNA)
DNA 1: ACCAAGCAACACACCCCGT
DNA 2: ACGGGGTGTGTTGCTTGGT
binding result [12]: no binding
